The target in test [1] is T1, mouse IL-18BP (amino acids 31-194) (mouse, UniProt Q9Z0M9 29-193, biotinylated on the AviTag (BirA ligase)).
T1 construct: Secreted decoy receptor; made in Expi293 cells (H7 signal peptide); the stated range is the same as for the human protein; also called mIL-18BP
T1 sequence: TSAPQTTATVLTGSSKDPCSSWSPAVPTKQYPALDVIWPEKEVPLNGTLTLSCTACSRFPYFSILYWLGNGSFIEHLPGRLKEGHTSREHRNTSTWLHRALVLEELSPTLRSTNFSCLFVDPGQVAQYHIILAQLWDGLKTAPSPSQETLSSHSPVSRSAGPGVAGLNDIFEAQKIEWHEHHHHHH
Kind of test: SPR; KD BP / KD Ra normalized to WT IL-18. On the technique in general: Surface plasmon resonance follows binding to a sensor surface in real time, without labels.

In test [2] the target is T1, mouse IL-18BP (amino acids 31-194). Kind of test: on-yeast isotherms; KD IL-18BP / KD IL-18Rα.
Test [3] deals with T2, mouse IL-18Rα ectodomain (amino acids 19-329) (mouse, UniProt Q61098 19-329, biotinylated on the AviTag (BirA ligase)).
T2 construct: range 19-329; Secreted from Expi293 cells (H7 signal peptide); also called mIL-18Rα; Ra
T2 sequence: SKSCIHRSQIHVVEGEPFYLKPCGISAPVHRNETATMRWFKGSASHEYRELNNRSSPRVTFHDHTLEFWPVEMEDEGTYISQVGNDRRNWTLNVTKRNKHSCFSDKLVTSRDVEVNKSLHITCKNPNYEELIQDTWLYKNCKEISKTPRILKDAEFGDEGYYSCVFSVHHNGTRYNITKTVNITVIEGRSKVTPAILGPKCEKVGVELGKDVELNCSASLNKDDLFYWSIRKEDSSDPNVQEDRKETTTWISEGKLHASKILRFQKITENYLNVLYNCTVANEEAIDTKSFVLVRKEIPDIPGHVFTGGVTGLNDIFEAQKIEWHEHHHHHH
Kind of test: flow cytometry, mIL-18Rα titrated on yeast-displayed murine IL-18 variant (binding isotherm, %Max). In general terms: A flow cytometer gives signals particle by particle.

Test [4] concerns the target T1, mouse IL-18BP (amino acids 31-194). Kind of test: SPR; KD IL-18BP / KD IL-18Rα. The method, then: (§1) By contrast, very little binding is observed with the same variants and mIL-18BP (right). (FIG. 11B) Representative surface plasmon resonance sensorgrams between immobilized biotinylated mIL-18BP and the murine DR-IL-18 variants.
(§2) Experiments were conducted using a Biacore™ T100 (Protein analysis interaction system) and carried out at 25° C. Biotinylated IL-18Rα or TL-18BP were immobilized onto a Biacore™ biotin capture chip (Series S CAP sensor chip, GE Healthcare) to yield an Rmax of ˜50 RU (IL-18Rα) or ˜10 RU (IL-18BP). Measurements were made with serial dilutions of the IL-18 variants in HEPES buffered Saline-P+ buffer (10 mM HEPES pH 7.4, 150 mM NaCl, 0.005% surfactant P20). The surface was regenerated by three 60-see injections of regeneration buffer (3/4 (v/v) 8M guanidine hydrochloride with 1/4 (v/v) 1M sodium hydroxide). Experiments were performed in multiple channels simultaneously for increased observations. All data were analyzed with the Biacore™ T100 evaluation software version 2.0 with a 1:1 Langmuir binding model.

Test [5] shares this target. Briefly: SPR; KD IL-18BP / KD IL-18Rα (30 µM used for NBD). The method, then: as §1, §2
Test [6] has the same target. Kind of test: on-yeast isotherms; KD IL-18BP / KD IL-18Rα (10 µM used for NBD).
Test [7] has as its target T3, human IL-18BP (amino acids 31-194) (human, UniProt O95998 31-194, biotinylated on the AviTag (BirA ligase) where immobilized or used for staining).
T3 construct: Secreted decoy receptor; made in insect cells (gp67 signal peptide); also called hIL-18BP
T3 sequence: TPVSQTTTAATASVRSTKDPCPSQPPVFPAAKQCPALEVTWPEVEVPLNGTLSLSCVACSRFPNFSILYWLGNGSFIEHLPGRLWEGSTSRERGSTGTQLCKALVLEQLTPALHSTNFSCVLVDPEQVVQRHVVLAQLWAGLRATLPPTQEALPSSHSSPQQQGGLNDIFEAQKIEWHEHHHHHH
Briefly: SPR; KD BP / KD Ra normalized to WT IL-18.

Test [8] concerns the target T3, human IL-18BP (amino acids 31-194). Briefly: on-yeast isotherms; KD IL-18BP / KD IL-18Rα (20 µM used for NBD).
Test [9] deals with T4, IL-18 receptor (IL-18R) on HEK-Blue IL-18 reporter cells (UniProt Q13478 19-541; O95256 20-599, limits assumed).
T4 sequence (looked up) 1: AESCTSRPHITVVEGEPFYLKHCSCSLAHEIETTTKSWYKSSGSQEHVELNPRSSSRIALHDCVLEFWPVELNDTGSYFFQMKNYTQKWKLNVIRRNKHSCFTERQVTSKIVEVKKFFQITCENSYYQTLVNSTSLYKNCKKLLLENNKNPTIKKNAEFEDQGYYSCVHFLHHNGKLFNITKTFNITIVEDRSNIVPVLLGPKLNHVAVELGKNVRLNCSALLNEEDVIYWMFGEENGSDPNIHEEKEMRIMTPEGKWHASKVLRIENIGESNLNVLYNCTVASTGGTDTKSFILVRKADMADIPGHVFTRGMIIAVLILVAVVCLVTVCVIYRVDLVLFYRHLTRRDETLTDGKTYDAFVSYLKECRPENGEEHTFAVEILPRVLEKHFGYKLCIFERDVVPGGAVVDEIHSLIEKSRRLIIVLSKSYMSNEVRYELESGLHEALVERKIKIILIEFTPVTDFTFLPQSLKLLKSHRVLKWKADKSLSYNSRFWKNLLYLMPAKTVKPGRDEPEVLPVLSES
T4 sequence (looked up) 2: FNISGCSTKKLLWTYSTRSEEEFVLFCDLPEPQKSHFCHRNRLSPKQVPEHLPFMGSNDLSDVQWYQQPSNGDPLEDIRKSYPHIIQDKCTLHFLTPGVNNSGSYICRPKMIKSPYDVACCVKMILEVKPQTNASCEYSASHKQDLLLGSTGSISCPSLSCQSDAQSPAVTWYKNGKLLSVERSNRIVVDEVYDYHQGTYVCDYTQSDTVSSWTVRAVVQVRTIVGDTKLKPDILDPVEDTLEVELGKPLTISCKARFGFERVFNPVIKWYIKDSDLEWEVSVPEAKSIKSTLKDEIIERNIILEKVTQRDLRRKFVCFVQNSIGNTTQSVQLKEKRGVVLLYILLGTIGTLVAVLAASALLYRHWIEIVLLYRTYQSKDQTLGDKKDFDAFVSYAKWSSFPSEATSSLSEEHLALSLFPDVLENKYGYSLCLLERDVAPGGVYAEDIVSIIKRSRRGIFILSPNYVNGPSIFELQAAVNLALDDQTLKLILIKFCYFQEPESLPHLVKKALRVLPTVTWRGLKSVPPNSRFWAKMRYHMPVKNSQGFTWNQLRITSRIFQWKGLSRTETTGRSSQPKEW
Briefly: cell-based or functional assay.

Test [10] has as its target T3, human IL-18BP (amino acids 31-194). Briefly: on-yeast isotherms; BP/Rα KD ratio normalized to WT. The method, then: Individual colonies of IL-18 yeast were grown overnight at 30° C. in SDCAA liquid media and induced in SGCAA liquid media for 1 day at 20° C. IL-18 display levels on yeast were verified by flow cytometry using an anti-cMyc tag antibody (anti-myc-PE; Cell Signaling Technologies). Receptor staining with biotinylated IL-18Rα (with or without IL-18Rβ) or biotinylated IL-18BP was performed in PBS supplemented with 0.5% BSA and 2 mM EDTA (PBE) on ice. All analysis was performed on a Sony SA3800 flow cytometer.
To additionally characterize the receptor binding activities of the DR-IL-18 variants, the cytokines were expressed recombinantly and surface plasmon resonance for IL-18Rα and IL-18BP was performed (see FIG. 5B for representative traces).

Changes are numbered by the printed parent chain.

B1: wild-type mouse IL-18 (mature form) (ligand)
chain: NFGRLHCTTAVIRNINDQVLFVDKRQPVFEDMTDIDQSASEPQTRLIIYMYKDSEVRGLAVTLSVKDSKMSTLSCKNKIISFEEMDPPENIDDIQSDLIFFQKRVPGHNKMEFESSLYEGHFLACQKEDDAFKLILKKKDENGDKSVMFTLTNLHQS
notes: recombinant from E. coli with C-terminal hexahistidine tag in SPR; also called mIL-18 WT; WT mIL-18
One may read the EC50 (read off the curve) as the concentration that produces a half-maximal response. Low readings indicate greater potency, high ones weaker potency. For the molecule B1, in test [1], the “IL-18 BP:Ra Dissociation Constant Ratio” value stood at 1. Besides, the results for the “KD ratio: IL-18BP/IL-18Rα” value in test [2] and in test [4] were 0.188 and 0.00183, respectively. For the same molecule, the 50% effective concentration (EC50 (read off the curve)) in test [3] is about 10 nM.

B2: mE8 (ligand)
chain: B1 chain with M50V, K52T, S54G, E55R, V56R, L59K, R104K, N109D
notes: recombinant with C-terminal hexahistidine tag in SPR
Take B2: the entries for the “KD ratio: IL-18BP/IL-18Rα” value in test [5] and in test [6] were over 17800 and over 238, respectively.

B3: 6-29 (ligand)
chain: YFGKLESKLSVIRNLNDQVLFIDQGNRPLFEDMTDSDCRDNAPRTIFIISKYSDSRARGLAVTISVKCEKISTLSCENKIISFKEMNPPDNIKDTKSDIIFFQRNVPGHGRKMQFESSSYEGYFLACEKERDLFKLILKKEDELGDRSIMFTVQNED
notes: recombinant with C-terminal hexahistidine tag in SPR and cell assays; also called h6-29; version 2.0 human DR-IL-18 variant
On to B3, for which the “IL-18 BP:Ra Dissociation Constant Ratio” value in test [7] was over 7.59e+06. The “KD ratio: IL-18BP/IL-18Rα” value in [8] worked out at 540. Moreover, the “EC50 (read off the curve); HEK-Blue IL-18 SEAP reporter, OD 655 nM” value in [9] is about 0.9 nM. Further, the “Dissociation Constant Ratio normalized to WT IL-18” value in test [10] was over 8000.

The values are drawn from US20250057918A1 (YALE UNIVERSITY, published 2025).
